Test results published in the RNAGym collection of RNA variant scans (doi:10.1073/pnas.2313332121).
Fewer inactive variants are shown than the library holds.

B1: TPR 5TU (parent)
chain: GGAUCUUCUCGAUCUAACAAAAAAGACAAAUCUGCCACAAAGCUUGAGAGCAUCUUCGGAUGCAGAGGCGGCAGCCUUCGGUGGCGCGAUAGCGCCAACGUUCUCAACUAUGACACGCAAAACGCGUGCUCCGUUGAAUGGAGUUUAUCAUG

Variants of: B1
Assay: polymerase ribozyme fitness, log enrichment relative to wild type (log ratio); higher = more active; in vitro selection for triplet polymerase activity
Method in brief: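 Fitness is a logarithmic measure of how a genotype enriched relative to the wild type, with replicate averages weighted by inverse variance. The logarithm uses base 2, and enrichment came from Illumina sequencing of input and output libraries. Those libraries were PCR-built, transcribed mutants of each subunit of a heterodimeric triplet polymerase ribozyme, passed through one triplicate in vitro selection round that included frozen incubation at −7 °C, gel excision of extended constructs and streptavidin-bead capture. Genotypes were kept only if they had ≥10 input reads and ≥1 read per output.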

Variant | polymerase ribozyme fitness (log ratio)
GGAUCUUCUCGAUCUAACAAAAAAGACAAAUCUGCCACAUAGCUUGAGAGCAUCUUCGGUUGCAGAGGCCGCAGCUUUCGGUGGCGCGAUAGCGCAAACGUUCUCAACUAUGACACGCAAAACGCGUGCUCCGUUGAAUGGAGUUUAUCAUG | ≤ -4.2
GGAUCUUCUCGAUCUAACAAAAAAGACAAAUCUGCCACAAAGCUUCAGAGCAUCUUCGAAUGCAGGGGCGGCAGCCUUCGGUAGCGCGAUAGCGCCAACGUUCUCAACUAUGACACGCAUAAGGCGUGCUCCGUUGAAUGGAGUUUAUCAUG | ≤ -4.2
GGAUCUUCUCGAUCUAACAAAAAAGACAAAUCUGCCACAAAGCUUGAGAGCAUCUUCGGAUGCAGAGGCGGCAGCCUUCGGUGGCGCGAUAGCGCCUACGUUCUCAACUAUGACACGCAAAACGCGUGCUCCGUUGAAUGGAGUUUAUCGUG | -1.61
GGAUCUUCUCGAUCUAACAAAAAAGACAAAUCUGCCACAAAGCUUGAGAGCAUCUUCGGAUGCAGAGGCGGCAGCCUUCGGUGGCGGCAUAGCGCCAACGUUCUCAACUAUGACACGCAAAACGCGUGCUCCGUUAAAUGGAGUUUAUCAUG | ≤ -4.2
GGAUCUUCUCGAUCUAACAAAAAAGACAAAACUGCCACAUAGCUUGAGCGCAUCUUCGGAAGCAGAGGCGGCAGCGUUCGGUGGUGCGAUAGCGCCAACGUUCUCAACUAUGACACGCAAAACGCGUGCUCCGUUGAAUGGAGUUUAUCAUG | ≤ -4.2
GGAUCUUCUCGAUCUGACAAAAAAGUCAAAUCUGCCACAAAGCUUGAGAGUCUCUUCGGAUGCAGAGGCGGCAGCCUUCGGUGGCGUGAUAGCGCCAACGUUCUCAACUAUGACACGCAAAACGCGUGCUCCGUUGAAUGGAGUUUAUCAUG | ≤ -4.2
GGAUCUUCUCGAUCUAACAAAAAAGACAAAUCUGCCACAAAGCUUGAGAGCAUCAUCGGAUGCAGAGGCGGCAGCCUUCGGUUGCGCGAUAGCGCCAACGUUCUCAACUAUGACACGCAAAACGCGUGCUCCGUUGGAUGGAGUUUAUCAUG | -2.28
GGAUCUUCUCGAUCUAACAAACAAGACAAAUCUGCCACAAAGCUUGAGAGCAUCUUCGGAUGCAGAGGCGGCAGCCUUCGAUGGCGCGAUAGCGCCAACGUUCUCAACUAUGACACGCAAAACGCGUGCUCCGUUGAAUGGAGUUUAUCAUG | -0.137
GGAUAUUCUCGAUCUAACAAAAAAGACAAAUCUGCCACAAAGCUUGAGAGCAUCUUUGGAUGCAGAGGCGGCAGCCUUCGGUGGCACGAUAGCGCCAACGUUCUCAACUAUGACACGCAGAACGCGUGCUCCGUUGAAUGCAGUUUAUCAUG | -2.54
GGAUCUUCUCGAUCUAACAAAAAAGACAAAUCUGCCACAAAGCUUGAGAGCAUCUUCGGAUGCAGAGGCGGCAGCCUUCGGUGGCGCGGUAGCGCCAACGUUCUCAACUAUGACACGCAAAACGCGUGCUCCGUUGAAUGGCGUUUAUCAUG | -1.45
GGAUCCUCUCGAUCUAACAAAAAAGACAAAUCUGCCACAAAGCUUGAGAGCAUCUUCGGAUGCAGAGGCGGCAUCCUUCGGUGGCGCGAUAGCGCCAACGUACUCAACUAUGACACGCAAAAAGCGUGCUCCGUUGAAUGGAGUUUAUCAUG | ≤ -4.2
GGAUCUUCUCGAUCUAACAGAAAAGACAAAUCUGCCACAAAGCUUGAGAGCAUCUUCGGAUGCAGAGGCGGCAGCCUUCGGUGGCGUGAUAGCGCCAACGUUCUCAACUAUGACACGCAAAACGCGUGCUCCGUUGAAUGGAGUUUAUCAUG | -1.06
GGAUCUUCUCGAUCUAACAAAAAAGACAAAUCUGCCACAAAGCUUGAGAGCAUCUUCGGAUGCAGAGGCGGCAGCUUUCGGUGGCGCGAUAGGGCCAACGUUCUCAACUAUGACACGCAAAACGCGUGCUCCGUUGAAUGGAGUUUAUCAUG | -2.8
GGAUCUUCUCGAUCUAACAAAAAAGACAAAUCUGCCACAAAGCUUGAGAGGAUCUUCGGAUGCAGAGGCGACAGCCUUCGGUGGCGCGAUAGCGCCAACGUUCUCAACUAUGACACGCAAAGCGCGUGCUCCGUUGAAUGGAGUUUAUCAUG | ≤ -4.2
GGAUCUUCUAGAUCUAACAAAAAAGACAAAUCUGCCACAAAGCUUGAGAGGCUCUUCGAAUGCAGAGGCGGCAGGCUUCGGUGGCGCGAUAGCGCCAACGUUCUCAACUAUGACACGCAAAACGCGUGCUCCGUUGAAUGGAGUUUAUCAUG | ≤ -4.2
GGAUCUUCUCGAUCUAACAAAAAAGACAAAUCUGCCACAAAGCUUGAGAGCAUCUUCGGAUGCAGAGGCGGCAGCCUUCGGUGGCGCGAUAGCGCCAACGUUGUCAACUAUGACACGCAAAACGCGUGCUCCGUUGAAUGGAGUCUAUCAUG | -1.74
GGAUCUUCUCGAUCUAACAAAAAAGACAAAUCUGCCACAACGCUUGAGAGCAUCUUCGGAUGCAGAGGCGGCAGCGUUCGGUGGCGCGAUAGCGCUAACGUUCUCAACUAUGACACGCAAAACGCGUGCUCCGUUGAAUGGAGUUUAUCAUG | ≤ -4.2
GGAUCUUCUCGAUCUAACAAAAAAGACAAAUCUGCCACAAAGCUUGAGAGCAACUUCGGAUGCAGAGGCGGCAGCCUUCGGUUGCGCGAUAGCGCCAACGUUCUCAACUAUGACCCGCAAAACACGUGCUCCGUUGAAUGGAGUUUAUCAUG | -2.73
GGAUCAUCUCGAUCUAACAAAAAAGUCAAAUCUGCCACAAAGCUUGAGAGCAGCUUCGGAUGCAGAGGCGGCAGCCUUCGGUGGCGCGAUAGCGCCAACGUUAUCAACCAUGACACGCAAAACGCGUGCUCCGUUGAAUGGAGUUUAUCAUG | ≤ -4.2
